# Where a SMILES comes first, the peptide text is derived from it. Bridges are numbered along the chain shown (N, C = ends).
# Experiment: circular dichroism
# Conditions: 10 mM K phosphate, 100 mM KF; pH 7; 20 °C; 150 uM
row,Molecule,helicity [frac]
1,"CC[C@H](C)[C@H](NC(C)=O)C(=O)N[C@H]1CCCCNC(=O)C[C@@H](C(=O)N[C@@H](CCCCN)C(=O)N[C@@H](C)C(=O)N[C@H]2CCCCNC(=O)C[C@@H](C(=O)N[C@@H](Cc3c[nH]cn3)C(=O)N[C@H](C(=O)N[C@@H](C)C(=O)N[C@@H](CCC(N)=O)C(=O)N[C@@H](CC(C)C)C(N)=O)[C@@H](C)CC)NC(=O)[C@H](CCCNC(=N)N)NC(=O)[C@H](CC(C)C)NC(=O)[C@H](CCSC)NC2=O)NC(=O)[C@H](CCCNC(=N)N)NC(=O)[C@H](CC(C)C)NC(=O)[C@H](CCC(=O)O)NC1=O (Ac-IKELRDKAKMLRDHIAQL-NH2; lactam 2-6, 9-13)",0.35
2,CC[C@H](C)[C@H](NC(C)=O)C(=O)N[C@H]1CCCCNC(=O)C[C@@H](C(=O)N[C@@H](CCCCN)C(=O)N[C@@H](C)C(=O)N[C@@H](CC(N)=O)C(=O)N[C@@H](CCSC)C(=O)N[C@@H](CC(C)C)C(=O)N[C@@H](CCCNC(=N)N)C(=O)N[C@@H](CCC(=O)O)C(=O)N[C@@H](Cc2c[nH]cn2)C(=O)N[C@H](C(=O)N[C@@H](C)C(=O)N[C@@H](CCC(N)=O)C(=O)N[C@@H](CC(C)C)C(N)=O)[C@@H](C)CC)NC(=O)[C@H](CCCNC(=N)N)NC(=O)[C@H](CC(C)C)NC(=O)[C@H](CCC(=O)O)NC1=O (Ac-IKELRDKANMLREHIAQL-NH2; lactam 2-6),0.3
3,CC[C@H](C)[C@H](NC(C)=O)C(=O)N[C@@H](Cc1ccc(O)cc1)C(=O)N[C@@H](CCC(=O)O)C(=O)N[C@@H](CC(C)C)C(=O)N[C@@H](CCCNC(=N)N)C(=O)N[C@@H](CO)C(=O)N[C@@H](CCCCN)C(=O)N[C@@H](C)C(=O)N[C@H]1CCCCNC(=O)C[C@@H](C(=O)N[C@@H](Cc2c[nH]cn2)C(=O)N[C@H](C(=O)N[C@@H](C)C(=O)N[C@@H](CCC(N)=O)C(=O)N[C@@H](CC(C)C)C(N)=O)[C@@H](C)CC)NC(=O)[C@H](CCCNC(=N)N)NC(=O)[C@H](CC(C)C)NC(=O)[C@H](CCSC)NC1=O (Ac-IYELRSKAKMLRDHIAQL-NH2; lactam 9-13),0.34
4,"CC[C@H](C)[C@@H]1NC(=O)[C@H](CCC(=O)O)NC(=O)[C@@H](NC(=O)[C@H](CCCCN)NC(=O)[C@H](CC(C)C)NC(C)=O)CCCCNC(=O)C[C@@H](C(=O)N[C@@H](CC(C)C)C(=O)N[C@@H](CCCNC(=N)N)C(=O)N[C@H]2CCCCNC(=O)C[C@@H](C(=O)N[C@@H](CC(C)C)C(=O)N[C@@H](CCCNC(=N)N)C(=O)N[C@@H](CCC(=O)O)C(=O)N[C@@H](Cc3c[nH]cn3)C(N)=O)NC(=O)[C@H](CCCCN)NC(=O)[C@H](C)NC(=O)[C@H](CCCCN)NC2=O)NC(=O)[C@H](Cc2ccc(O)cc2)NC1=O (Ac-LKKEIYDLRKKAKDLREH-NH2; lactam 3-7, 10-14)",0.39
5,"CC[C@H](C)[C@@H]1NC(=O)[C@H](CCC(=O)O)NC(=O)[C@@H](NC(=O)[C@H](CCCCN)NC(=O)[C@H](CC(C)C)NC(C)=O)CCCCNC(=O)C[C@@H](C(=O)N[C@@H](CC(C)C)C(=O)N[C@@H](CCCNC(=N)N)C(=O)N[C@@H](CCCCN)C(=O)N[C@@H](CCCCN)C(=O)N[C@@H](C)C(=O)N[C@H]2CCCCNC(=O)C[C@@H](C(=O)N[C@@H](Cc3c[nH]cn3)C(N)=O)NC(=O)[C@H](CCCNC(=N)N)NC(=O)[C@H](CC(C)C)NC(=O)[C@H](CCSC)NC2=O)NC(=O)[C@H](Cc2ccc(O)cc2)NC1=O (Ac-LKKEIYDLRKKAKMLRDH-NH2; lactam 3-7, 13-17)",0.49
6,"CC[C@H](C)[C@@H]1NC(=O)[C@H](Cc2c[nH]cn2)NC(=O)[C@@H](NC(=O)[C@H](CCCNC(=N)N)NC(=O)[C@H](CC(C)C)NC(=O)[C@@H]2CC(=O)NCCCC[C@H](NC(=O)[C@H](CCCNC(=N)N)NC(=O)[C@H](CC(C)C)NC(=O)[C@@H]3CC(=O)NCCCC[C@H](NC(=O)[C@H](CCCCN)NC(=O)[C@H](CC(C)C)NC(C)=O)C(=O)N[C@@H](CCC(=O)O)C(=O)N[C@@H]([C@@H](C)CC)C(=O)N[C@@H](Cc4ccc(O)cc4)C(=O)N3)C(=O)N[C@@H](CCCCN)C(=O)N[C@@H](C)C(=O)N[C@@H](CC(N)=O)C(=O)N2)CCCCNC(=O)C[C@@H](C(=O)N[C@@H](CC(C)C)C(N)=O)NC(=O)[C@H](C)NC1=O (Ac-LKKEIYDLRKKANDLRKHIADL-NH2; lactam 3-7, 10-14, 17-21)",0.43
7,"CC[C@H](C)[C@H](NC(=O)[C@H](Cc1c[nH]cn1)NC(=O)[C@@H]1CC(=O)NCCCC[C@H](NC(=O)[C@H](C)NC(=O)[C@H](CCCCN)NC(=O)[C@H](CO)NC(=O)[C@H](CCCNC(=N)N)NC(=O)[C@H](CC(C)C)NC(=O)[C@@H]2CC(=O)NCCCC[C@H](NC(=O)[C@H](CCCCN)NC(=O)[C@H](CC(C)C)NC(C)=O)C(=O)N[C@@H](CCC(=O)O)C(=O)N[C@@H]([C@@H](C)CC)C(=O)N[C@@H](Cc3ccc(O)cc3)C(=O)N2)C(=O)N[C@@H](CCSC)C(=O)N[C@@H](CC(C)C)C(=O)N[C@@H](CCCNC(=N)N)C(=O)N1)C(=O)N[C@@H](C)C(=O)N[C@@H](CCC(N)=O)C(=O)N[C@@H](CC(C)C)C(N)=O (Ac-LKKEIYDLRSKAKMLRDHIAQL-NH2; lactam 3-7, 13-17)",0.63
8,"CC[C@H](C)[C@@H]1NC(=O)[C@H](Cc2c[nH]cn2)NC(=O)[C@@H](NC(=O)[C@H](CCCNC(=N)N)NC(=O)[C@H](CC(C)C)NC(=O)[C@H](CCSC)NC(=O)[C@H](CC(N)=O)NC(=O)[C@H](C)NC(=O)[C@H](CCCCN)NC(=O)[C@H](CO)NC(=O)[C@H](CCCNC(=N)N)NC(=O)[C@H](CC(C)C)NC(=O)[C@@H]2CC(=O)NCCCC[C@H](NC(=O)[C@H](CCCCN)NC(=O)[C@H](CC(C)C)NC(C)=O)C(=O)N[C@@H](CCC(=O)O)C(=O)N[C@@H]([C@@H](C)CC)C(=O)N[C@@H](Cc3ccc(O)cc3)C(=O)N2)CCCCNC(=O)C[C@@H](C(=O)N[C@@H](CC(C)C)C(N)=O)NC(=O)[C@H](C)NC1=O (Ac-LKKEIYDLRSKANMLRKHIADL-NH2; lactam 3-7, 17-21)",0.57
9,"CC[C@H](C)[C@H](NC(=O)[C@H](Cc1c[nH]cn1)NC(=O)[C@@H]1CC(=O)NCCCC[C@H](NC(=O)[C@H](Cc2ccccc2)NC(=O)[C@H](CCCCN)NC(=O)[C@H](CO)NC(=O)[C@H](CCCNC(=N)N)NC(=O)[C@H](CC(C)C)NC(=O)[C@@H]2CC(=O)NCCCC[C@H](NC(=O)[C@H](CCCCN)NC(=O)[C@H](CC(C)C)NC(C)=O)C(=O)N[C@@H](CCC(=O)O)C(=O)N[C@@H]([C@@H](C)CC)C(=O)N[C@@H](Cc3ccc(O)cc3)C(=O)N2)C(=O)N[C@@H](CCSC)C(=O)N[C@@H](CC(C)C)C(=O)N[C@@H](CCCNC(=N)N)C(=O)N1)C(=O)N[C@@H](C)C(=O)N[C@@H](CCC(N)=O)C(=O)N[C@@H](CC(C)C)C(N)=O (Ac-LKKEIYDLRSKFKMLRDHIAQL-NH2; lactam 3-7, 13-17)",0.37
10,"CC[C@H](C)[C@H](NC(=O)[C@H](Cc1c[nH]cn1)NC(=O)[C@@H]1CC(=O)NCCCC[C@H](NC(=O)[C@H](C)NC(=O)[C@H](CC(C)C)NC(=O)[C@H](CO)NC(=O)[C@H](CCCNC(=N)N)NC(=O)[C@H](CC(C)C)NC(=O)[C@@H]2CC(=O)NCCCC[C@H](NC(=O)[C@H](CCCCN)NC(=O)[C@H](CC(C)C)NC(C)=O)C(=O)N[C@@H](CCC(=O)O)C(=O)N[C@@H]([C@@H](C)CC)C(=O)N[C@@H](Cc3ccc(O)cc3)C(=O)N2)C(=O)N[C@@H](CCSC)C(=O)N[C@@H](CC(C)C)C(=O)N[C@@H](CCCNC(=N)N)C(=O)N1)C(=O)N[C@@H](C)C(=O)N[C@@H](CCC(N)=O)C(=O)N[C@@H](CC(C)C)C(N)=O (Ac-LKKEIYDLRSLAKMLRDHIAQL-NH2; lactam 3-7, 13-17)",0.34
11,"CC[C@H](C)[C@H](NC(=O)[C@H](Cc1c[nH]cn1)NC(=O)[C@@H]1CC(=O)NCCCC[C@H](NC(=O)[C@H](C)NC(=O)[C@H](CCCCN)NC(=O)[C@H](CO)NC(=O)[C@H](CCCNC(=N)N)NC(=O)[C@H](CC(C)C)NC(=O)[C@@H]2CC(=O)NCCCC[C@H](NC(=O)[C@H](CCCCN)NC(=O)[C@H](CC(C)C)NC(C)=O)C(=O)N[C@@H](CCC(=O)O)C(=O)N[C@@H](CC(N)=O)C(=O)N[C@@H](Cc3ccc(O)cc3)C(=O)N2)C(=O)N[C@@H](CCSC)C(=O)N[C@@H](CC(C)C)C(=O)N[C@@H](CCCNC(=N)N)C(=O)N1)C(=O)N[C@@H](C)C(=O)N[C@@H](CCC(N)=O)C(=O)N[C@@H](CC(C)C)C(N)=O (Ac-LKKENYDLRSKAKMLRDHIAQL-NH2; lactam 3-7, 13-17)",0.33
12,"CC[C@H](C)[C@H](NC(=O)[C@H](Cc1c[nH]cn1)NC(=O)[C@@H]1CC(=O)NCCCC[C@H](NC(=O)[C@H](C)NC(=O)[C@H](CCCCN)NC(=O)[C@H](CO)NC(=O)[C@H](CCCNC(=N)N)NC(=O)[C@H](CC(C)C)NC(=O)[C@@H]2CC(=O)NCCCC[C@H](NC(=O)[C@H](CCCNC(=N)N)NC(=O)[C@H](CC(C)C)NC(C)=O)C(=O)N[C@@H](CCC(=O)O)C(=O)N[C@@H]([C@@H](C)CC)C(=O)N[C@@H](Cc3ccc(O)cc3)C(=O)N2)C(=O)N[C@@H](CCSC)C(=O)N[C@@H](CC(C)C)C(=O)N[C@@H](CCCNC(=N)N)C(=O)N1)C(=O)N[C@@H](C)C(=O)N[C@@H](CCC(N)=O)C(=O)N[C@@H](CC(C)C)C(N)=O (Ac-LRKEIYDLRSKAKMLRDHIAQL-NH2; lactam 3-7, 13-17)",0.34

# Experiment: Circular dichroism helicity of peptide in isolation (homotypic)
# Format: physicochemical
# Conditions: CD ratio, peptide in isolation, 20 °C
# Procedure: Circular dichroism (CD) spectroscopy was conducted with an Applied Photophysics Chirascan CD spectroploarimeter (Leatherhead, U.K.) using a 200 µL sample in a CD cell with a 1 mm path length (Hellma, Müllheim Germany). Samples contained 150 µM total peptide concentration suspended in 10 mM potassium phosphate and 100 mM potassium fluoride at pH 7. The CD spectra of the homodimeric and heterodimeric complexes were scanned between 300 nm and 190 nm at 20°C (for both pre- and post-melt samples to check for reversibility of unfolding) and at −8°C to assess helical levels and coiled-coil structure (see Figure 4).
# Supplementary file pone.0059415.s005.doc: Table S1 Helical Data obtained via Circular Dichroism. Shown are A) homo and B) heteromeric samples. […] A ratio higher than 1 is generally indicated evidence that a coiled coil has formed, while a ratio of less than 0.9 is taken to indicate the presence of isolated helices. Shown in column two are the calculated fractional helicities taken from the Molar Residue Ellipticity at […]. Fraction helicity (ƒH) can be calculated as ƒH = (θ222−θc)/(θ222∞−θc) where θ222∞ = (−44000+250*T)*(1−k/Nr) and θc = 2220–(53*T). In these equations the wavelength dependent constant k = 2.4 (at 222 nm), Nr = the number of residues, and T = 20 degrees Celsius (293 K). The 222/208 ratio is used to provide evidence on whether the helices are monomeric or are adopting a quaternary structure. Measured helicity for the original JunWCANDI peptide and for the template on which the hydrocarbon constraints have been introduced. […] The N- and C-capping motifs have been removed for the constrained since they are considered to be largely redundant upon their introduction. (DOC) Click here for additional data file.
row,Molecule,Homotypic Ɵ222/208 (20ºC)
1,Ac-ASTDTLQAETDQLEDEKYALQTEIANLLKEKEKLGAP-NH2 [cFos],0.59

# Same assay, conditions: peptide in isolation, from CD molar residue ellipticity at 222 nm, 20°C, 150 µM, pH 7
row,Molecule,"Fraction helical (ƒH), homotypic"
1,Ac-ASTDTLQAETDQLEDEKYALQTEIANLLKEKEKLGAP-NH2 [cFos],0.20

# Reference: paper PMC3609778, “Truncated and Helix-Constrained Peptides with High Affinity and Specificity for the cFos Coiled-Coil of AP-1” (PLoS ONE, 2013)
